Measured values as given in patent US8367390B2, “Galactanase variants” (Novozymes A/S, priority 2002, dated 2013).

Experiment: Activity with ONPG, release of o-nitrophenol (ONP) at 405 nm
Assay type: biochemical
Conditions: enzyme 110 μg/ml, ONPG 5 mg/ml
Protocol: The activity of HIGAL and MTGAL with ONPG was tested by mixing 200 microliters (normally 5.5 mg/ml) ONPG in 50 mM sodium acetate, 1 mM CaCl2, 0.01% Triton X-100, pH 6.5 with 25 microliters galactanase (normally 1 mg/ml) in the well of a microtiter plate. Release of o-nitrophenol (ONP) was measured at room temperature at 405 nm every 10 seconds normally for 30 min on a SpectraMaxPlus (Molecular Devices). Effects on the observed release of ONP was studied with varied enzyme concentration, ONPG concentration and with addition of galactose (Gal), beta-1,4-galactobiose (Gal2) (Megazyme), beta-1,4-galactotriose (Gal3), beta-1,4-galactotetraose (Gal4), glucose (Glu), arabinose (Ara), galacturonic acid (GalA), maltose (Mal) or maltotriose (Mal3).
In Tables 8-11 below, incubation times required to increase the observed absorbance at 405 nm by given amounts are listed. Cells marked ‘n.r.’ indicate that the increase in absorbance was not reached in the experiment. In general, the initial increase in absorbance at 405 nm was very slow, but after a lag phase the rate of ONP release often increased drastically—often approximately exponentially. The most likely explanation for the observed kinetics is that ONPG reacts with the enzyme to give an enzyme-galactosyl intermediate which hydrolyses very slowly. Instead, the Gal of the intermediate is released by transglycosylation, initially with ONPG or added sugar as acceptor. In cases where the rate of ONP release increases, these transglycosylation products are even better acceptors than the initial ones. […] More likely, Gal inhibits the subsequent transglycosylation, which requires binding of ONPG to the +1 and +2 subsites, e.g., by binding to the +2 subsite. With 50 mg/ml Gal added (results not shown) release of ONP was even slower with only insignificant increase of absorbance at 405 nm in 30 min.

[1] = Table 11, no sugar, first experiment
[2] = Table 11, no sugar, second experiment
[3] = Table 11, no sugar, third experiment

B1: HIGAL: GH Family 53 galactanase from Humicola insolens, SEQ ID NO: 2 (wild type parent) (protein, listed as Humicola insolens)
chain: ALQYKGVDWSSVMVEERAGVRYKNVNGQEKPLEYILAENGVNMVRQRVWVNPWDGNYNLDYNIQLARRAKAAGLGLYINFHYSDTWADPAHQTTPAGWPSDINNLAWKLYNYTLDSMNRFADAGIQVDIVSIGNEITQGLLWPLGKTNNWYNIARLLHSAAWGVKDSRLNPKPKIMVHLDNGWNWDTQNWWYTNVLSQGPFEMSDFDMMGVSFYPFYSASATLDSLRRSLNNMVSRWGKEVAVVETNWPTSCPYPRYQFPADVRNVPFSAAGQTQYIQSVANVVSSVSKGVGLFYWEPAWIHNANLGSSCADNTMFTPSGQALSSLSVFHRI
modifications: mat_peptide (1)..()
Initial rate (mOD/min) (Table 10, Gal3 0.5 mg/ml): 200 mOD/min
Time (min) to increase A405 by: 0.025 (Table 10, Gal3 0.5 mg/ml): 0.0 min
Time (min) to increase A405 by: 0.05 (Table 10, Gal3 0.5 mg/ml): 0.2 min
Time (min) to increase A405 by: 0.1 (Table 10, Gal3 0.5 mg/ml): 0.3 min
Time (min) to increase A405 by: 0.2 (Table 10, Gal3 0.5 mg/ml): 0.5 min
Time (min) to increase A405 by: 0.4 (Table 10, Gal3 0.5 mg/ml): 0.8 min
Time (min) to increase A405 by: 0.8 (Table 10, Gal3 0.5 mg/ml): 1.5 min
Time (min) to increase A405 by: 1.6 (Table 10, Gal3 0.5 mg/ml): 2.5 min
Time (min) to increase A405 by: 3.2 (Table 10, Gal3 0.5 mg/ml): 3.8 min
Initial rate (mOD/min) (Table 10, Gal4 0.05 mg/ml): 80 mOD/min
Time (min) to increase A405 by: 0.025 (Table 10, Gal4 0.05 mg/ml): 0.2 min
Time (min) to increase A405 by: 0.05 (Table 10, Gal4 0.05 mg/ml): 0.5 min
Time (min) to increase A405 by: 0.1 (Table 10, Gal4 0.05 mg/ml): 0.8 min
Time (min) to increase A405 by: 0.2 (Table 10, Gal4 0.05 mg/ml): 1.5 min
Time (min) to increase A405 by: 0.4 (Table 10, Gal4 0.05 mg/ml): 2.5 min
Time (min) to increase A405 by: 0.8 (Table 10, Gal4 0.05 mg/ml): 3.7 min
Time (min) to increase A405 by: 1.6 (Table 10, Gal4 0.05 mg/ml): 5.2 min
Time (min) to increase A405 by: 3.2 (Table 10, Gal4 0.05 mg/ml): 7.5 min
Initial rate (mOD/min) (Table 10, Gal4 0.5 mg/ml): 700 mOD/min
Time (min) to increase A405 by: 0.025 (Table 10, Gal4 0.5 mg/ml): 0.0 min
Time (min) to increase A405 by: 0.05 (Table 10, Gal4 0.5 mg/ml): 0.0 min
Time (min) to increase A405 by: 0.1 (Table 10, Gal4 0.5 mg/ml): 0.0 min
Time (min) to increase A405 by: 0.2 (Table 10, Gal4 0.5 mg/ml): 0.2 min
Time (min) to increase A405 by: 0.4 (Table 10, Gal4 0.5 mg/ml): 0.5 min
Time (min) to increase A405 by: 0.8 (Table 10, Gal4 0.5 mg/ml): 1.0 min
Time (min) to increase A405 by: 1.6 (Table 10, Gal4 0.5 mg/ml): 2.2 min
Time (min) to increase A405 by: 3.2 (Table 10, Gal4 0.5 mg/ml): 5.3 min
Initial rate (mOD/min) (Table 10, no sugar): 0.9 mOD/min
Time (min) to increase A405 by: 0.025 (Table 10, no sugar): 10.0 min
Time (min) to increase A405 by: 0.05 (Table 10, no sugar): 11.3 min
Time (min) to increase A405 by: 0.1 (Table 10, no sugar): 12.8 min
Time (min) to increase A405 by: 0.2 (Table 10, no sugar): 14.2 min
Time (min) to increase A405 by: 0.4 (Table 10, no sugar): 15.7 min
Time (min) to increase A405 by: 0.8 (Table 10, no sugar): 17.0 min
Time (min) to increase A405 by: 1.6 (Table 10, no sugar): 18.5 min
Time (min) to increase A405 by: 3.2 (Table 10, no sugar): 20.0 min
Time (min) to increase A405 by: 0.025 (Table 11, Ara 5 mg/ml): 26.5 min
Time (min) to increase A405 by: 0.05 (Table 11, Ara 5 mg/ml): n.r.
Time (min) to increase A405 by: 0.1 (Table 11, Ara 5 mg/ml): n.r.
Time (min) to increase A405 by: 0.2 (Table 11, Ara 5 mg/ml): n.r.
Time (min) to increase A405 by: 0.4 (Table 11, Ara 5 mg/ml): n.r.
Time (min) to increase A405 by: 0.8 (Table 11, Ara 5 mg/ml): n.r.
Time (min) to increase A405 by: 1.6 (Table 11, Ara 5 mg/ml): n.r.
Time (min) to increase A405 by: 3.2 (Table 11, Ara 5 mg/ml): n.r.
Time (min) to increase A405 by: 0.025 (Table 11, GalA 5 mg/ml): 9.5 min
Time (min) to increase A405 by: 0.05 (Table 11, GalA 5 mg/ml): 11.2 min
Time (min) to increase A405 by: 0.1 (Table 11, GalA 5 mg/ml): 12.7 min
Time (min) to increase A405 by: 0.2 (Table 11, GalA 5 mg/ml): 14.3 min
Time (min) to increase A405 by: 0.4 (Table 11, GalA 5 mg/ml): 15.8 min
Time (min) to increase A405 by: 0.8 (Table 11, GalA 5 mg/ml): 17.5 min
Time (min) to increase A405 by: 1.6 (Table 11, GalA 5 mg/ml): 19.3 min
Time (min) to increase A405 by: 3.2 (Table 11, GalA 5 mg/ml): 22.5 min
Time (min) to increase A405 by: 0.025 (Table 11, GalA 50 mg/ml): 13.7 min
Time (min) to increase A405 by: 0.05 (Table 11, GalA 50 mg/ml): 16.7 min
Time (min) to increase A405 by: 0.1 (Table 11, GalA 50 mg/ml): 20.0 min
Time (min) to increase A405 by: 0.2 (Table 11, GalA 50 mg/ml): 23.3 min
Time (min) to increase A405 by: 0.4 (Table 11, GalA 50 mg/ml): 26.8 min
Time (min) to increase A405 by: 0.8 (Table 11, GalA 50 mg/ml): n.r.
Time (min) to increase A405 by: 1.6 (Table 11, GalA 50 mg/ml): n.r.
Time (min) to increase A405 by: 3.2 (Table 11, GalA 50 mg/ml): n.r.
Time (min) to increase A405 by: 0.025 (Table 11, Glu 5 mg/ml): 12.8 min
Time (min) to increase A405 by: 0.05 (Table 11, Glu 5 mg/ml): 14.8 min
Time (min) to increase A405 by: 0.1 (Table 11, Glu 5 mg/ml): 17.0 min
Time (min) to increase A405 by: 0.2 (Table 11, Glu 5 mg/ml): 19.3 min
Time (min) to increase A405 by: 0.4 (Table 11, Glu 5 mg/ml): 21.8 min
Time (min) to increase A405 by: 0.8 (Table 11, Glu 5 mg/ml): 24.3 min
Time (min) to increase A405 by: 1.6 (Table 11, Glu 5 mg/ml): 27.0 min
Time (min) to increase A405 by: 3.2 (Table 11, Glu 5 mg/ml): n.r.
Time (min) to increase A405 by: 0.025 (Table 11, Mal 5 mg/ml): 11.5 min
Time (min) to increase A405 by: 0.05 (Table 11, Mal 5 mg/ml): 13.0 min
Time (min) to increase A405 by: 0.1 (Table 11, Mal 5 mg/ml): 14.3 min
Time (min) to increase A405 by: 0.2 (Table 11, Mal 5 mg/ml): 15.7 min
Time (min) to increase A405 by: 0.4 (Table 11, Mal 5 mg/ml): 17.2 min
Time (min) to increase A405 by: 0.8 (Table 11, Mal 5 mg/ml): 18.7 min
Time (min) to increase A405 by: 1.6 (Table 11, Mal 5 mg/ml): 20.2 min
Time (min) to increase A405 by: 3.2 (Table 11, Mal 5 mg/ml): 22.0 min
Time (min) to increase A405 by: 0.025 (Table 11, Mal3 5 mg/ml): 11.0 min
Time (min) to increase A405 by: 0.05 (Table 11, Mal3 5 mg/ml): 12.3 min
Time (min) to increase A405 by: 0.1 (Table 11, Mal3 5 mg/ml): 13.8 min
Time (min) to increase A405 by: 0.2 (Table 11, Mal3 5 mg/ml): 15.2 min
Time (min) to increase A405 by: 0.4 (Table 11, Mal3 5 mg/ml): 16.5 min
Time (min) to increase A405 by: 0.8 (Table 11, Mal3 5 mg/ml): 18.0 min
Time (min) to increase A405 by: 1.6 (Table 11, Mal3 5 mg/ml): 19.3 min
Time (min) to increase A405 by: 3.2 (Table 11, Mal3 5 mg/ml): 21.3 min
Time (min) to increase A405 by: 0.025 [1]: 8.5 min
Time (min) to increase A405 by: 0.05 [1]: 9.5 min
Time (min) to increase A405 by: 0.1 [1]: 10.8 min
Time (min) to increase A405 by: 0.2 [1]: 12.0 min
Time (min) to increase A405 by: 0.4 [1]: 13.3 min
Time (min) to increase A405 by: 0.8 [1]: 14.5 min
Time (min) to increase A405 by: 1.6 [1]: 15.8 min
Time (min) to increase A405 by: 3.2 [1]: 17.3 min
Time (min) to increase A405 by: 0.025 [2]: 11.0 min
Time (min) to increase A405 by: 0.05 [2]: 12.5 min
Time (min) to increase A405 by: 0.1 [2]: 13.8 min
Time (min) to increase A405 by: 0.2 [2]: 15.2 min
Time (min) to increase A405 by: 0.4 [2]: 16.5 min
Time (min) to increase A405 by: 0.8 [2]: 18.0 min
Time (min) to increase A405 by: 1.6 [2]: 19.5 min
Time (min) to increase A405 by: 3.2 [2]: 21.3 min
Time (min) to increase A405 by: 0.025 [3]: 8.7 min
Time (min) to increase A405 by: 0.05 [3]: 9.8 min
Time (min) to increase A405 by: 0.1 [3]: 11.0 min
Time (min) to increase A405 by: 0.2 [3]: 12.2 min
Time (min) to increase A405 by: 0.4 [3]: 13.3 min
Time (min) to increase A405 by: 0.8 [3]: 14.7 min
Time (min) to increase A405 by: 1.6 [3]: 16.0 min
Time (min) to increase A405 by: 3.2 [3]: 17.3 min
